Results on twelve molecules are retold here after paper PMC9922296, “Mechanistic insights into RNA surveillance by the canonical poly(A) polymerase Pla1 of the MTREC complex” (Nature Communications, 2023).

Experiment [1] has as its target C-terminal RRM domain of Pla1 (Pla1RRM, residues 352-566), purified (S. pombe) (UniProt Q10295). Briefly: ITC; MicroCal PEAQ-ITC, 25 °C, 20 mM HEPES pH 7.5, 150 mM NaCl, 2 mM BME; 40-50 µM protein in the cell, 400-500 µM ligand in the syringe; one-binding site model.
In experiment [2] the target is T1, C-terminal RRM domain of Pla1 (Pla1RRM, residues 352-566), purified (S. pombe, UniProt Q10295 352-566).
T1 construct: canonical poly(A) polymerase Pla1, S. pombe, C-terminal RRM domain, residues 352-566; also called Pla1 CTD; source: E. coli BL21 (DE3) Rosetta2, purified (His-Trap, TEV cleavage, Resource Q, Superdex 200); not shown: His6, N-terminal, cleaved
T1 sequence (looked up): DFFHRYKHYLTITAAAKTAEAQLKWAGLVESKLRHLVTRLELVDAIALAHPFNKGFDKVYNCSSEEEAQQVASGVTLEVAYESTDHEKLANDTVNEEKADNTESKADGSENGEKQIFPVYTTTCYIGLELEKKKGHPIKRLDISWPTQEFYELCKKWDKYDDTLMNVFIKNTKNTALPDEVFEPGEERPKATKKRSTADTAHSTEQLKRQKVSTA
The experiment is described as above. Particulars: both partners purified.

The target of experiment [3] is T2, Full-length Pla1 (Pla1FL, residues 1-566) with non-cleavable N-terminal His6, purified (S. pombe, UniProt Q10295 1-566).
T2 construct: canonical poly(A) polymerase Pla1, S. pombe, full length, residues 1-566; source: E. coli BL21 (DE3) Rosetta2, purified (His-Trap, Resource Q, Superdex 200); not shown: His6, N-terminal, kept
T2 sequence (looked up): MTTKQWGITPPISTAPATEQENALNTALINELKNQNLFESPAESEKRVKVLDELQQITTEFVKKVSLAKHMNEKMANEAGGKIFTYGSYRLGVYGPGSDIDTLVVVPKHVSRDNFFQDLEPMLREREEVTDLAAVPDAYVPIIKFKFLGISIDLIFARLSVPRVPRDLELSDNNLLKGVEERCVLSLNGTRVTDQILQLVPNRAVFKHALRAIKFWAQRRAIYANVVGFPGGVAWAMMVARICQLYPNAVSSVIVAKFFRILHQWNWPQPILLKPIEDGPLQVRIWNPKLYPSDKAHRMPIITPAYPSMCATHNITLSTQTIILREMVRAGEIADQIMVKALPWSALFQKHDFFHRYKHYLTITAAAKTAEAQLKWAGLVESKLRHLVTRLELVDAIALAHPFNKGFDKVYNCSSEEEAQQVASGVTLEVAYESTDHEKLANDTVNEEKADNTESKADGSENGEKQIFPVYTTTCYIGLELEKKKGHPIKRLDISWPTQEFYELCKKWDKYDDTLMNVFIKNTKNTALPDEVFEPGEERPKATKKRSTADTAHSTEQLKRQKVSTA
Briefly: BLI; Octet RED96e, 25 °C, 20 mM HEPES pH 7.5, 150 mM NaCl, 2 mM BME, 0.01% Tween-20; biotinylated Red1_(288-345) or Iss1_(30-76) on streptavidin biosensors, 2-fold serial dilution of Pla1FL; global 1:1 fit; apparent. Particulars: both partners purified. On the technique in general: In BLI a coated tip is dipped into the sample, and binding shifts an interference pattern.

Experiment [4] addresses T3, Pla1FL (full-length Pla1, residues 1-566) (S. pombe, UniProt Q10295 1-566).
T3 construct: Pla1, canonical poly(A) polymerase, S. pombe, residues 1-566; the His6 tag is non-cleavable; source: E. coli BL21 (DE3) Rosetta2, purified (His-Trap, Resource Q, Superdex 200); not shown: His6, N-terminal, kept
T3 sequence (looked up): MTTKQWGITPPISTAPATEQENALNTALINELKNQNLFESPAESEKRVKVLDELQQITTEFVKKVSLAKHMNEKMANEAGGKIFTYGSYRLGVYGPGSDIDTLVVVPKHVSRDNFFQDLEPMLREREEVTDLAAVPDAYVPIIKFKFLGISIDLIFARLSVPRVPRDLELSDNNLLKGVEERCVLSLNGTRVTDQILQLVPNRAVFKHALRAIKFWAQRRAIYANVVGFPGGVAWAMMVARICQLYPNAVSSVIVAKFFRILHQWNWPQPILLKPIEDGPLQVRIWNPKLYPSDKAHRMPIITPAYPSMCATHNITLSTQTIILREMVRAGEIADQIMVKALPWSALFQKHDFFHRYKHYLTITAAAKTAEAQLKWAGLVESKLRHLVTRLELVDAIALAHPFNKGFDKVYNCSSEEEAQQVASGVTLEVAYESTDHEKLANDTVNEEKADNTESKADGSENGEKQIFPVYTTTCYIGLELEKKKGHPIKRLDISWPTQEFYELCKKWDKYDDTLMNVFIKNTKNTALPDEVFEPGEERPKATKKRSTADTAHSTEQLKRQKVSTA
Briefly: BLI; biotinylated Red1 288-345 or Iss1 30-76 immobilised on streptavidin biosensors, 2-fold serial dilution of Pla1FL as analyte; 25 °C; 20 mM HEPES pH 7.5, 150 mM NaCl, 2 mM BME, 0.01% Tween-20; global 1:1 fit. Particulars: both partners purified.

Experiment [5] deals with T4, Pla1RRM (C-terminal RRM domain of Pla1, residues 352-566) (S. pombe, UniProt Q10295 352-566).
T4 construct: Pla1, canonical poly(A) polymerase, S. pombe, C-terminal RRM domain, residues 352-566; also called Pla1 RRM domain; Pla1 CTD; source: E. coli BL21 (DE3) Rosetta2, purified (His-Trap, TEV cleavage, Resource Q, Superdex 200); not shown: His6, N-terminal, cleaved
T4 sequence (looked up): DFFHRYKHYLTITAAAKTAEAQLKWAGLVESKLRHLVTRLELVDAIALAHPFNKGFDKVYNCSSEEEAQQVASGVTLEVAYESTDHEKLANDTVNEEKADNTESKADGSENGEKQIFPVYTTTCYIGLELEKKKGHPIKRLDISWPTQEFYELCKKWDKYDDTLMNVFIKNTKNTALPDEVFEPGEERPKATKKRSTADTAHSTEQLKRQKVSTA
Briefly: ITC; Red1 or Iss1 construct in the syringe (400-500 µM) titrated into Pla1RRM (wild type or mutant) in the cell (40-50 µM); 25 °C; 20 mM HEPES pH 7.5, 150 mM NaCl, 2 mM BME; one-binding site model; each independent measurement listed. Particulars: both partners purified. A general note: Isothermal titration calorimetry measures the heat released or taken up as one component is titrated into another.

In experiment [6] the target is T4, Pla1RRM (C-terminal RRM domain of Pla1, …). The experiment is described as above. Particulars: both partners purified. This is another data set of the same source.
The target of experiment [7] is Biotinylated Iss1 residues 30-76 (S. pombe). Nature of the experiment: BLI; Octet RED96e, 25 °C, 20 mM HEPES pH 7.5, 150 mM NaCl, 2 mM BME, 0.01% Tween-20; biotinylated Red1_(288-345) or Iss1_(30-76) on streptavidin biosensors, 2-fold serial dilution of Pla1FL; global 1:1 fit; apparent.
Experiment [8] has as its target T5, Red1 residues 288-345 with Val313 mutated to arginine (S. pombe, UniProt Q9UTR8 288-345, Val313 to an arginine residue).
T5 sequence: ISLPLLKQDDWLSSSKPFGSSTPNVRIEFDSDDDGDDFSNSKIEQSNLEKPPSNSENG
Briefly: ITC.

Values joined by “and” are separate entries in the source; they are usually repeats but may differ in a detail not shown here. Equal values may be shown once. No end group written: not given here.

Take “Iss1 residues 30-76, purified (domain or fragment)”: the Kd in experiment [1] was determined as 2500 nM.

B1: Red1 residues 288-345 with Val313 mutated to arginine (domain or fragment, S. pombe, UniProt Q9UTR8 288-345, looked up)
chain: ISLPLLKQDDWLSSSKPFGSSTPNVRIEFDSDDDGDDFSNSKIEQSNLEKPPSNSENG
notes: also called V313R; source: E. coli BL21 (DE3), purified; not shown: GB1, N-terminal, cleaved; His6, C-terminal, kept
As to B1, the “fold loss in affinity against wild-type Red1_(288-345)” value in experiment [2] is roughly 13 fold.

B2: Biotinylated Red1 residues 288-345 (domain or fragment, S. pombe, UniProt Q9UTR8 288-345, looked up)
chain: ISLPLLKQDDWLSSSKPFGSSTPNVVIEFDSDDDGDDFSNSKIEQSNLEKPPSNSENG
modifications: also: biotin (EZ-Link NHS-PEG4-Biotin), site not given here
notes: source: E. coli BL21 (DE3), purified, biotinylated; not shown: GB1, N-terminal, cleaved; His6, C-terminal, kept
In general, koff refers to the first-order rate constant of dissociation. As a reminder, the kon is a measure of how fast the partners come together. As to B2, in experiment [3], the Kd came out at 59.2 nM, the koff was 0.016 s⁻¹ and the association rate constant (kon) amounted to 280000 M⁻¹ s⁻¹.

B3: biotinylated Red1 288-345 (domain or fragment, S. pombe)
chain: ISLPLLKQDDWLSSSKPFGSSTPNVVIEFDSDDDGDDFSNSKIEQSNLEKPPSNSENG
modifications: also: biotin (EZ-Link NHS-PEG4-Biotin), sites not given here
notes: same protein as Dm2, biotinylated for immobilisation on streptavidin biosensors; source: E. coli BL21 (DE3), purified, biotinylated with EZ-Link NHS-PEG4-Biotin; not shown: GB1, N-terminal, cleaved; His6, C-terminal, kept
As to B3, in experiment [4], the koff came to 0.0163 s⁻¹ and the kon was 275000 M⁻¹ s⁻¹.

B4: Red1 288-345 S308A (domain or fragment, S. pombe, UniProt Q9UTR8 288-345, looked up)
chain: ISLPLLKQDDWLSSSKPFGSATPNVVIEFDSDDDGDDFSNSKIEQSNLEKPPSNSENG
notes: also called Red1S308A; source: E. coli BL21 (DE3), purified (His-Trap, TEV cleavage, second IMAC, Superdex 75); not shown: GB1, N-terminal, cleaved; His6, C-terminal, kept
The term stoichiometry N denotes a count of units in the complex or per binding partner. Turning to B4, the Kd in experiment [5] was 1010 nM and 1450 nM; in experiment [6] it was 1200 ± 300 nM. Also, the “stoichiometry N” value in experiment [5] was 1.04 and 1.05.

B5: Red1 288-345 N311A (domain or fragment, S. pombe, UniProt Q9UTR8 288-345, looked up)
chain: ISLPLLKQDDWLSSSKPFGSSTPAVVIEFDSDDDGDDFSNSKIEQSNLEKPPSNSENG
notes: also called Red1N311A; source: E. coli BL21 (DE3), purified (His-Trap, TEV cleavage, second IMAC, Superdex 75); not shown: GB1, N-terminal, cleaved; His6, C-terminal, kept
On to B5, for which, in experiment [5], the Kd is 770 nM and 1530 nM; the “stoichiometry N” value was 0.99 and 1.05. The Kd in experiment [6] stood at 1100 ± 250 nM.

B6: Red1 288-345 V313R (domain or fragment, S. pombe, UniProt Q9UTR8 288-345, looked up)
chain: ISLPLLKQDDWLSSSKPFGSSTPNVRIEFDSDDDGDDFSNSKIEQSNLEKPPSNSENG
notes: source: E. coli BL21 (DE3), purified (His-Trap, TEV cleavage, second IMAC, Superdex 75); not shown: GB1, N-terminal, cleaved; His6, C-terminal, kept
With B6, in experiment [5], the Kd is 15800 nM and 19900 nM; the “stoichiometry N” value is 1.13 and 0.96.

B7: Full-length Pla1 (Pla1FL, residues 1-566) with non-cleavable N-terminal His6, purified (enzyme)
chain: MTTKQWGITPPISTAPATEQENALNTALINELKNQNLFESPAESEKRVKVLDELQQITTEFVKKVSLAKHMNEKMANEAGGKIFTYGSYRLGVYGPGSDIDTLVVVPKHVSRDNFFQDLEPMLREREEVTDLAAVPDAYVPIIKFKFLGISIDLIFARLSVPRVPRDLELSDNNLLKGVEERCVLSLNGTRVTDQILQLVPNRAVFKHALRAIKFWAQRRAIYANVVGFPGGVAWAMMVARICQLYPNAVSSVIVAKFFRILHQWNWPQPILLKPIEDGPLQVRIWNPKLYPSDKAHRMPIITPAYPSMCATHNITLSTQTIILREMVRAGEIADQIMVKALPWSALFQKHDFFHRYKHYLTITAAAKTAEAQLKWAGLVESKLRHLVTRLELVDAIALAHPFNKGFDKVYNCSSEEEAQQVASGVTLEVAYESTDHEKLANDTVNEEKADNTESKADGSENGEKQIFPVYTTTCYIGLELEKKKGHPIKRLDISWPTQEFYELCKKWDKYDDTLMNVFIKNTKNTALPDEVFEPGEERPKATKKRSTADTAHSTEQLKRQKVSTA
In the case of B7, in experiment [7], the Kd came to 115 nM, the koff was 0.024 s⁻¹ and the kon worked out at 210000 M⁻¹ s⁻¹.

B8: Red1 288-322 (domain or fragment, S. pombe)
chain: ISLPLLKQDDWLSSSKPFGSSTPNVVIEFDSDDDG
notes: as for B6
As to B8, in experiment [5], the Kd is 7300 nM and 8400 nM; the “stoichiometry N” value is 1.31 and 1.3.

B9: Red1 residues 288-322, purified (domain or fragment, S. pombe, UniProt Q9UTR8 288-322, looked up)
chain: ISLPLLKQDDWLSSSKPFGSSTPNVVIEFDSDDDG
notes: as for B6
Consider B9, for which the Kd in experiment [2] came to 7900 nM.

B10: biotinylated Iss1 30-76 (domain or fragment, S. pombe)
chain: VSNAKSPEQASEESDDSDIEFIIETKPGERAEPLGGSIATLGSTRPS
modifications: also: biotin (EZ-Link NHS-PEG4-Biotin), sites not given here
notes: Iss1, S. pombe, residues 30-76; same protein as Dm12, biotinylated for immobilisation on streptavidin biosensors; also called Iss1_(30-76), biotin-labelled; source: E. coli BL21 (DE3) Rosetta2, purified, biotinylated with EZ-Link NHS-PEG4-Biotin; not shown: His-Thioredoxin, N-terminal, cleaved
In turn, B10 gave a koff in experiment [4] of 0.0242 s⁻¹.

B11: C-terminal RRM domain of Pla1 (Pla1RRM, residues 352-566), purified (domain or fragment)
chain: DFFHRYKHYLTITAAAKTAEAQLKWAGLVESKLRHLVTRLELVDAIALAHPFNKGFDKVYNCSSEEEAQQVASGVTLEVAYESTDHEKLANDTVNEEKADNTESKADGSENGEKQIFPVYTTTCYIGLELEKKKGHPIKRLDISWPTQEFYELCKKWDKYDDTLMNVFIKNTKNTALPDEVFEPGEERPKATKKRSTADTAHSTEQLKRQKVSTA
B11 had a Kd in experiment [8] of 17900 nM.
